# Source: patent publication US20240254222A1 (Bayer, published 2024)
# Where a chain is given by its changes, count along the chain named.
# T1: human wild-type Sema3A of SEQ ID NO: 600, expressed by HEK293 cells (human, UniProt Q14563 22-771, limits assumed)
# T1 sequence: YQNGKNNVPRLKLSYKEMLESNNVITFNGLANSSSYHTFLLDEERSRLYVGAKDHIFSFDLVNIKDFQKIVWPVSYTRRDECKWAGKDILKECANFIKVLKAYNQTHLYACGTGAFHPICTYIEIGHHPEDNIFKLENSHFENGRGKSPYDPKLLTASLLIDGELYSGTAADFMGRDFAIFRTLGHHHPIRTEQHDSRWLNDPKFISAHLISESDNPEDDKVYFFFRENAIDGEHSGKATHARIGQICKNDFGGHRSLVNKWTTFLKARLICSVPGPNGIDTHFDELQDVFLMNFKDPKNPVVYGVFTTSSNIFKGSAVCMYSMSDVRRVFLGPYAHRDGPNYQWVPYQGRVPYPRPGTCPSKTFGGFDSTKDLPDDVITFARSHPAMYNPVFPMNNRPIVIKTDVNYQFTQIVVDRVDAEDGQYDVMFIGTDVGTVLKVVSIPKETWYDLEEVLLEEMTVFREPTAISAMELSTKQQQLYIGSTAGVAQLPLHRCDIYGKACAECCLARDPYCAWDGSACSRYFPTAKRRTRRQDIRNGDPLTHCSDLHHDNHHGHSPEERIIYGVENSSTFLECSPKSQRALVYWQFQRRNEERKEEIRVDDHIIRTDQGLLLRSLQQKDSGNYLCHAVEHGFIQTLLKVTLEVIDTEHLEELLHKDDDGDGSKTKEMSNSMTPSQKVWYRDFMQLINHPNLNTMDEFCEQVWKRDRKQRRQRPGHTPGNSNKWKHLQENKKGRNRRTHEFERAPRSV
# T2: Cyno Semaphorin3A-Sema Domain, TPP-19122 (cynomolgus (Macaca fascicularis), UniProt Q63548 21-569 (rat entry), limits assumed)
# T2 construct: produced inhouse
# T2 chain: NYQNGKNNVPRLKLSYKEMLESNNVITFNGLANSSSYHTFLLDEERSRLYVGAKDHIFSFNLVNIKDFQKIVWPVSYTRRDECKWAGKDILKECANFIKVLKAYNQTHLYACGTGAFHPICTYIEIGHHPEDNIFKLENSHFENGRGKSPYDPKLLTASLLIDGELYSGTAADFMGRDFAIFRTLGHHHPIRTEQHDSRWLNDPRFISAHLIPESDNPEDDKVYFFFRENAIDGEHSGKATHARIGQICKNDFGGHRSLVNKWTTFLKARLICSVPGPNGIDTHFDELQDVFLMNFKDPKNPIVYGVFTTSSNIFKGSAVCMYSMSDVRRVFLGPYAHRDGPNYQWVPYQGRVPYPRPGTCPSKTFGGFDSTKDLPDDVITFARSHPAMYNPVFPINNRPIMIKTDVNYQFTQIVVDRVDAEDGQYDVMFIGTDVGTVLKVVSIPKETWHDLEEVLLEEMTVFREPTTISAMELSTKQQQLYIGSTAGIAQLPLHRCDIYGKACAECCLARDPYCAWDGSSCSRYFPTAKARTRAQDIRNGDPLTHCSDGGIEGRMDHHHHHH
# B1: TPP-23298 (antibody, human IgG4 S228P, lambda, V domains shown)
# VH: EVQLLESGGGLVQPGGSLRLSCAASGFTFYSYAMSWVRQAPGKGLEWVSAIGTGGDTYYADSVKGRFTISRDNSKNTLYLQMNSLRAEDTAVYYCARRDDYTSRDAFDYWGQGTLVTVSS
# VL: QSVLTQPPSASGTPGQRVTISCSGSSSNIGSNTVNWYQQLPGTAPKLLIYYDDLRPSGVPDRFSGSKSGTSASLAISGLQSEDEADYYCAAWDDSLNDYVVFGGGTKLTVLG
# B2: TPP-15370 (antibody, human IgG1, lambda, V domains shown)
# VH: B1 VH with Y30S, A33G, S35H, K64M, Y109V
# VL: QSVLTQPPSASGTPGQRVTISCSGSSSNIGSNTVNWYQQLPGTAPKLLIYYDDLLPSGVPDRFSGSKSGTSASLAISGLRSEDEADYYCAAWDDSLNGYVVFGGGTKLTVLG
# notes: human IgG1; also called IgG1, hit from panning; parental mAb
# B3: TPP-23334 (antibody, human IgG4 S228P, lambda, V domains shown)
# VH: B1 VH with Y30S, T53Y
# VL: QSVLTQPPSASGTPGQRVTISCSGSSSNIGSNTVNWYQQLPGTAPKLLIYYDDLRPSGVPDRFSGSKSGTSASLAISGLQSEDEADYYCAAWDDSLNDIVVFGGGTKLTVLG
# B4: TPP-23374 (antibody, human IgG4 S228P, lambda, V domains shown)
# VH: B1 VH with T53Y
# VL: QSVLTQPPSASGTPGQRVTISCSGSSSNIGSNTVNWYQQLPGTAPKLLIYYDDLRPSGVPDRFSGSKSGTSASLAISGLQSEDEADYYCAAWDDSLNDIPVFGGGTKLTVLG
# B5: TPP-17755 (antibody, human IgG1, lambda, V domains shown)
# VH: EVQLLESGGGLVQTGGSLRLSCAASGFTFSDYAMSWVRQAPGKGLEWVSWIYYDSGSKYYADSVKGRFTISRDNSKNTLYLQMNSLRAEDTAVYYCAKLNGDFDYWGQGTLVTVSS
# VL: QSVLTQPPSASGTPGQRVTISCSGSSSNIGNNDVSWYQQLPGTAPKLLIYADSHRPSGVPDRFSGSKSGTSASLAISGLRSEDEADYYCGAWDSSLSGYVFGGGTKLTVLG
# notes: also called Samsung; Samsung Prior Art F11
# B6: TPP-15374 (antibody, human IgG1, lambda, V domains shown)
# VH: EVQLLESGGGLVQPGGSLRLSCAASGFTFSSYEMNWVRQAPGKGLEWVSGISWNSGSIGYADSVKGRFTISRDNSKNTLYLQMNSLRAEDTAVYYCARSGYSSSWFDPDFDYWGQGTLVTVSS
# VL: QSVLTQPPSASGTPGQRVTISCTGSSSNIGAGYDVHWYQQLPGTAPKLLIYGNSNRPSGVPDRFSGSKSGTSASLAISGLRSEDEADYYCSSYAGSNPYVVFGGGTKLTVLG
# notes: as for B2
# Target: T1, human wild-type Sema3A of SEQ ID NO: …
# Test: cell-based or functional assay
row,Binder,"EC50 (pM), HUVEC repulsion assay"
1,B1,80 pM
2,B2,800 pM
3,B3,120 pM
4,B4,77 pM

# Target: T3, Human Semaphorin3A-Fc (R&D Systems), TPP-13211 (human)
# T3 construct: R&D Systems 1250-S3; also called recombinant human Sema3A-Fc chimera
# T3 sequence (chain, as listed by the source limits assumed): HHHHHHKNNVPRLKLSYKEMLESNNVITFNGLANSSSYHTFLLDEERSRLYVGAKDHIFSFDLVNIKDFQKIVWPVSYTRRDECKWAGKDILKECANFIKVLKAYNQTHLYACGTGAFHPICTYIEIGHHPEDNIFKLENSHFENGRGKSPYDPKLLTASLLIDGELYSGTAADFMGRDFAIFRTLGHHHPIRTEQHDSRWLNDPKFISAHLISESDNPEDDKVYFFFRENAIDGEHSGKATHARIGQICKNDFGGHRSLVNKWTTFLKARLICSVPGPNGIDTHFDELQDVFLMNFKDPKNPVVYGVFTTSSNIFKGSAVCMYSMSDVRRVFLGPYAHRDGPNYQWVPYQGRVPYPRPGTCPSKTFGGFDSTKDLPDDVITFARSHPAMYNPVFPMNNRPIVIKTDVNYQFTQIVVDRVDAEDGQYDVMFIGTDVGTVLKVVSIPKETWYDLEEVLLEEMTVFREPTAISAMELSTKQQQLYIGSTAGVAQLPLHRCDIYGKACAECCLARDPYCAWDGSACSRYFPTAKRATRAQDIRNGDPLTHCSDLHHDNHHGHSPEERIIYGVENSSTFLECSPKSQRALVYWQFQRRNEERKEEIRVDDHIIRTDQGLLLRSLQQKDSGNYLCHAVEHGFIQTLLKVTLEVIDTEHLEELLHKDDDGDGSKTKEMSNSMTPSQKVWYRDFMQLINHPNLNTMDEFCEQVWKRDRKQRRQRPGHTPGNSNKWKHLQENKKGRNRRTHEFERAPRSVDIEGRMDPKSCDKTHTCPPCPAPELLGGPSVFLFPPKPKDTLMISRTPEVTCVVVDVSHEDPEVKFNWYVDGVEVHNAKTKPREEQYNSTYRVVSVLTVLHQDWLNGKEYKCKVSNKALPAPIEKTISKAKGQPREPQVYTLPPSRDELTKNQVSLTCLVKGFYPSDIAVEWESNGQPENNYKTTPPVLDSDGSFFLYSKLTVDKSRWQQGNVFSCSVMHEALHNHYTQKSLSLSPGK
# Test: competition ELISA on coated TPP-13211, competitor biotinylated TPP-15370
# Method: For screening in a competition ELISA setup, human Sema3a (TPP-13211) was coated onto 384-well plates (Greiner bio-one, 781077) with a concentration of 0.5 μg/ml in coating buffer (Carbonate-Basis pH 9.6, Candor 121125) over night at 10° C. After washing the plates 3 times with 50 μl PBS 0.05% Tween the plates were blocked with 50 μl Smart Block® (Candor 113500) for 1 h at 20° C. and washed again 3 times as described.
# Subsequently, 20 μl of pre-mixed antibody solution was added to the plates and incubate for 18 h at 10° C. […] The total concentration of the added antibody solution was 0.25 μg/ml. During the incubation time the antibodies bound to the plates in a competitive manner as they compete for the same epitope on the human Sema3A protein.
# After subsequent washing with 50 μl PBS 0.05% Tween for 3 times, 20 μl of a Streptavidin-HRP solution (R&D Systems, DY998, 1:200 in PBS 0.05% Tween 10% Smart Block) were added and incubated for 1 h and 20° C. followed by subsequent washing 3 times with 50 μl PBS 0.05% Tween and addition of 20 μl Amplex Red solution (Invitrogen A12222, 1:1000 in NaP-buffer 50 mM pH7.6 with 1:10000 of 30% H2O2). After a final incubation for 20 min at 20° C. the signal was determined using an emission wavelength of 595 nm and excitation of 530 nm.
Binder,VAL norm to TPP-9809 (1 to 1 ratio),VAL norm to TPP-9809 (1 to 5 ratio)
B1,0.18,0.09
B2,0.67,0.54
B3,0.28,0.11
B4,0.19,0.08

# Target: T3, Human Semaphorin3A-Fc (R&D Systems), …
# Test: cell-based or functional assay
row,Binder,"EC50 (nM), GCC assay"
1,B5,52.7 nM
2,B6,8.13 nM
3,B1,2.4 nM
4,B2,4.33 nM
5,B3,2.24 nM
6,B4,2.19 nM

# Target: T2, Cyno Semaphorin3A-Sema Domain, TPP-19122
# Test: SPR, captured antibody, Sema3A domain analyte
# Method: To assess the binding activity of anti-Sema3A antibodies binding assays were conducted using surface plasmon resonance (SPR). Binding assays were performed on a Biacore T200 instrument (Cytiva) at 25° C. using assay buffer HBS P+, 300 mM NaCl, 0.75 mM CaCl₂, 2.5 mM MgCl₂, 1 mg/ml BSA, 0.05% NaN₃. Antibodies were captured via anti-human Fc IgGs (“Human antibody capture kit”, Order No. BR100839, Cytiva) covalently amine coupled to a Series S CM5 sensor chip (Cytiva). The amine coupling was carried out according to the manufacturer's instructions using 1-ethyl-3-(3-dimethylaminopropyl) carbodiimide hydrochloride (EDC), N-hydroxysuccinimide (NHS) and ethanolamine HCl, pH 8.5 (“Amine Coupling Kit” BR-1000-50, Cytiva.). Human, mouse, cynomolgus, rat, dog and pig monovalent Sema3A domain were used as analytes in a concentration series from 0.024-3.125 nM in multi cycle kinetics mode. The sensor surface was regenerated with glycine pH 2.0 after each antigen injection. Obtained sensorgrams were double referenced (subtraction of reference flow cell signal and buffer injection) and were fitted to a 1:1 Langmuir binding model using the Biacore T200 Evaluation software obtaining the experimental fitted RMax value. To calculate the binding activity first the theoretical RMax needs to be calculated according to equation 1: […]
# Binding activity was determined by dividing the experimental determined RMax by the theoretical calculated RMax according to equation 2: […]
row,Binder,Binding Activity [%]
1,B5,53%
2,B6,104%
3,B1,106%
4,B2,139%
